The results in this text go back to paper PMC8809517, “Cofactor-independent RNA editing by a synthetic S-type PPR protein”.

Where a chain is given by its changes, count along the chain named.

What all share (assay): high-throughput RNA pulldown from lysate on Ni-NTA beads; HRP: 50 mM Tris pH 8, 150 mM NaCl, 1 mM beta-mercaptoethanol, 50 ug/ml BSA, 3 ug/ml yeast RNA, 0.5% heparin; ITC and FP: Tris pH 8, 200 mM KCl, 5% glycerol; MST: 50 mM Tris pH 8, 200 mM NaCl, 1 mM DTT, BSA, heparin, 0.05% Tween 20
What all share (settings): tags: N-terminal His-eGFP

In series [1] the target is T1, GFP-9S library array, motif 4 ND N98I;D124W (synthetic construct, N98I;D124W).
T1 chain: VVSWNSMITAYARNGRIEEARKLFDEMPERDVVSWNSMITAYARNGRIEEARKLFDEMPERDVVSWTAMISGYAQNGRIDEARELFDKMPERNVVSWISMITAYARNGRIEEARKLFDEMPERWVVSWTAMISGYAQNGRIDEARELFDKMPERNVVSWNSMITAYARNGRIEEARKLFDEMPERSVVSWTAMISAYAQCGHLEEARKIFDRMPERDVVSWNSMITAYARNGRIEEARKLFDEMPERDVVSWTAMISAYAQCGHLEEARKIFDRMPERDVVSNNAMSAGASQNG

Series [2] concerns the target T2, GFP-9S library array, motif 4 ND N98K (synthetic construct, N98K).
T2 chain: T1 chain with I98K, W124D

Series [3] has as its target T3, GFP-9S library array, motif 4 ND N98E;D124K (synthetic construct, N98E;D124K).
T3 chain: T1 chain with I98E, W124K

Series [4] concerns the target T4, GFP-9S library array, motif 4 ND N98S;D124P (synthetic construct, N98S;D124P).
T4 chain: T1 chain with I98S, W124P

Series [5] addresses T5, GFP-9S library array, motif 4 ND N98E;D124S (synthetic construct, N98E;D124S).
T5 chain: T1 chain with I98E, W124S

B1: IR-rpoA-U (ssRNA)
RNA: AUUAUACGUGA
Broadly, the Kd is the concentration at which binding is half-saturated. For B1, the Kd in series [1] (label: 5' IRDye 800CW) stood at 136 nM; in series [2] (label: 5' IRDye 800CW) it was 279 nM; in series [3] (label: 5' IRDye 800CW) it was 267 nM; in series [4] (label: 5' IRDye 800CW), 253 nM; in series [5] (label: 5' IRDye 800CW), 512 nM.

B2: Cy5-rpoA-G (ssRNA)
RNA: AUUAGACGUGA
Take B2: the equilibrium dissociation constant (Kd) in series [1] (label: 5' Cy5) was 98.3 nM; in series [2] (label: 5' Cy5), 315 nM; in series [3] (label: 5' Cy5) it was 155 nM; in series [4] (label: 5' Cy5), 121 nM; in series [5] (label: 5' Cy5), 630 nM.

B3: Cy5-rpoA (ssRNA)
RNA: AUUACACGUGA
For the molecule B3, the Kd in series [1] (label: 5' Cy5) came out at 74.5 nM; in series [2] (label: 5' Cy5) it was 189 nM; in series [3] (label: 5' Cy5), 124 nM; in series [4] (label: 5' Cy5), 122 nM; in series [5] (label: 5' Cy5), 422 nM.

B4: IR-rpoA-A (ssRNA)
RNA: AUUAAACGUGA
In the case of B4, the dissociation constant (Kd) was 252 nM in series [1] (label: 5' IRDye 800CW); 409 nM in series [2] (label: 5' IRDye 800CW); 312 nM in series [3] (label: 5' IRDye 800CW); 224 nM in series [4] (label: 5' IRDye 800CW); 938 nM in series [5] (label: 5' IRDye 800CW).
